Assay results published in paper PMC3336205, “The generation and evaluation of two panels of epitope-matched mouse IgG1, IgG2a, IgG2b and IgG3 antibodies specific for Plasmodium falciparum and Plasmodium yoelii merozoite surface protein 1–19 (MSP1_(19))” (Experimental Parasitology, 2012).

Assays:
[1] = target: T1, recombinant PyMSP1_(19)-GST (Plasmodium yoelii yoelii (strain not …, UniProt P13828)); experiment: ELISA; five micrograms of recombinant purified antigen (PfMSP1_19-GST or PyMSP1_19-GST) coated; culture supernatant of secreting clones; detected with HRP anti-mouse IgG Fc-specific or anti-mouse kappa light chain secondary antibodies; read at 450 nm; conditions: one partner purified
T1 construct: merozoite surface protein 1 (MSP1), Plasmodium yoelii, C-terminal 19-kDa region (MSP1_19), homologous to PfMSP1_19; also called P. yoelii MSP1_(19); source: recombinant, purified (Lewis, 1989)
T1 sequence (P13828 whole entry, looked up): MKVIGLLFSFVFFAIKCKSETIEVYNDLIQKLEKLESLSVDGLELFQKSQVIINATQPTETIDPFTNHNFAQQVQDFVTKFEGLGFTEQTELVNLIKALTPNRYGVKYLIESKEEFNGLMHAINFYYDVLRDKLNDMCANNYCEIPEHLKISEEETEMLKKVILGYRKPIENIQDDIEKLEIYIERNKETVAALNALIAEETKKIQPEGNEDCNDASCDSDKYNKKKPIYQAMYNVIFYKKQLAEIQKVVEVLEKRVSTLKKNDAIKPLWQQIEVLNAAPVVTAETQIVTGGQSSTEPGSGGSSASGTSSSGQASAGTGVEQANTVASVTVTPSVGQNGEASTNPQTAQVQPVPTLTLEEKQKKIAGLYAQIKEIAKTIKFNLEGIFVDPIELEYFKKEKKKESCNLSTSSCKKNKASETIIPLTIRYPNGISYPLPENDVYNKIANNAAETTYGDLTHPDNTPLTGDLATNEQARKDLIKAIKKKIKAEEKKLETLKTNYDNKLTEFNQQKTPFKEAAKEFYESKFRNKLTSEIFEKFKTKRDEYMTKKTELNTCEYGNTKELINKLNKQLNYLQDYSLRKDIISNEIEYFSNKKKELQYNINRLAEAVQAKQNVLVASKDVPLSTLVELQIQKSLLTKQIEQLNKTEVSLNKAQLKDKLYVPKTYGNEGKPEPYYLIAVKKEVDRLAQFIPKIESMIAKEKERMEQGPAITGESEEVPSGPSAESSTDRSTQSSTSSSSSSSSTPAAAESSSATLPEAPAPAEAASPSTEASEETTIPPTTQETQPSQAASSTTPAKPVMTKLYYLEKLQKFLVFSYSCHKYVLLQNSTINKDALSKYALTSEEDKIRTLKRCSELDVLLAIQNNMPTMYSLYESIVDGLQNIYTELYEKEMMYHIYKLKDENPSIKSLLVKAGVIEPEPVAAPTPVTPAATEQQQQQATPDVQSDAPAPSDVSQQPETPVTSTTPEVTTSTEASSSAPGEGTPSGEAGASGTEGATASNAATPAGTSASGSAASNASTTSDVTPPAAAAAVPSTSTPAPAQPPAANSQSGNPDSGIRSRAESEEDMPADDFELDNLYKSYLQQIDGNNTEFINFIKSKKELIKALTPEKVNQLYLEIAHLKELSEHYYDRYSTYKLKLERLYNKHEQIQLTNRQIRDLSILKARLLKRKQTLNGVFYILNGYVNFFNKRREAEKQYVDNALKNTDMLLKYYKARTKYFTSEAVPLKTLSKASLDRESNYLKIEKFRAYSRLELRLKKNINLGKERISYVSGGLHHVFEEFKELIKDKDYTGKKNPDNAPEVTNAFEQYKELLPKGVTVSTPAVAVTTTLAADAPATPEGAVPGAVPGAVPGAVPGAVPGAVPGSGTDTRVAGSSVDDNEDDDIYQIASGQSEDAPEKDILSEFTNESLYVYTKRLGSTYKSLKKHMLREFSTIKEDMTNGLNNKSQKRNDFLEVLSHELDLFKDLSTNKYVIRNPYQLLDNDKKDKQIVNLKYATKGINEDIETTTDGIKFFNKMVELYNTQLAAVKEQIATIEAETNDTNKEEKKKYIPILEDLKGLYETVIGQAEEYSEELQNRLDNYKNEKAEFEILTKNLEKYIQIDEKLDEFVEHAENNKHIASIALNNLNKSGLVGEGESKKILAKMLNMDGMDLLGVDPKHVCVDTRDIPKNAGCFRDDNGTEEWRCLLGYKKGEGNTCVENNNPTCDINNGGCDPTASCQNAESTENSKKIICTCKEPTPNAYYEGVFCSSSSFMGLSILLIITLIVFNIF

[2] = target: T2, recombinant PfMSP1_(19)-GST (Plasmodium falciparum, strain not …, UniProt P04933); experiment: SPR; BIAcore X; PfMSP1_19-GST (50 μg/ml) amine-coupled to a CM5 chip; purified IgGs injected at 2, 1, 0.5, 0.25 and 0.125 μM, 50 μL at 10 μL/min; control Ag in flow cell 2; conditions: both partners purified
T2 construct: merozoite surface protein 1 (MSP1), Plasmodium falciparum, C-terminal 19-kDa region (MSP1_19); also called C-terminal 19-kDa region of Plasmodium falciparum merozoite surface protein 1; source: recombinant, purified (Burghaus and Holder, 1994)

| Binder | binding result [1] | Ka [2] [M⁻¹] | Kd [2] [nM] |
| --- | --- | --- | --- |
| mouse IgG1-B10 (PyMSP1_(19)-specific recombinant mouse IgG1) (antibody, V domains shown, VH of B10 (anti-PyMSP1_19), from pB10-VH/5; mouse IgG1 heavy-chain constant region, amplified from BALB/c genomic DNA; VL of B10, from pB10-VL/10; mouse kappa light chain constant region, amplified from BALB/c genomic DNA; Plasmids pVH-B10-mIgG1 and pVL-B10-mouse kappa; source: HEK-293T, stably transfected; culture supernatant) VH: QVQLQQSGPELVKPGASVKVSCKASGYAFTSYNMYWVKQSHGKSLEWIGYIDPYNGGTSYNQKLKGKATLTVDKSSSTAYIHLNSLTSEDSAVYYCTIHYYGYGGFAYWGQGTTVTSS VL: DIELTQSTAIMSASPGEKVTMTCSASSSVRYMYWYQQKPGSSPRLLIYDTSKLASGVPVRFSGSGSGTSYSLAISRMEAEDAASYYCQQWSSYPPTLGGGTKLEIK | binds |  |  |
| mouse IgG3-B10 (PyMSP1_(19)-specific recombinant mouse IgG3) (antibody, V domains shown, VH of B10 (anti-PyMSP1_19), from pB10-VH/5; mouse IgG3 heavy-chain constant region, amplified from genomic DNA; VL of B10, from pB10-VL/10; mouse kappa light chain constant region, amplified from BALB/c genomic DNA; Plasmids pVH-B10-mIgG3 and pVL-B10-mouse kappa; source: CHO-K1, stably transfected; culture supernatant) VH: QVQLQQSGPELVKPGASVKVSCKASGYAFTSYNMYWVKQSHGKSLEWIGYIDPYNGGTSYNQKLKGKATLTVDKSSSTAYIHLNSLTSEDSAVYYCTIHYYGYGGFAYWGQGTTVTSS VL: DIELTQSTAIMSASPGEKVTMTCSASSSVRYMYWYQQKPGSSPRLLIYDTSKLASGVPVRFSGSGSGTSYSLAISRMEAEDAASYYCQQWSSYPPTLGGGTKLEIK | binds |  |  |
| mouse IgG2b-B10 (PyMSP1_(19)-specific recombinant mouse IgG2b) (antibody, V domains shown, VH of B10 (anti-PyMSP1_19), from pB10-VH/5; mouse IgG2b heavy-chain constant region, amplified from genomic DNA; VL of B10, from pB10-VL/10; mouse kappa light chain constant region, amplified from BALB/c genomic DNA; Plasmids pVH-B10-mIgG2b and pVL-B10-mouse kappa; source: CHO-K1, stably transfected; culture supernatant) VH: QVQLQQSGPELVKPGASVKVSCKASGYAFTSYNMYWVKQSHGKSLEWIGYIDPYNGGTSYNQKLKGKATLTVDKSSSTAYIHLNSLTSEDSAVYYCTIHYYGYGGFAYWGQGTTVTSS VL: DIELTQSTAIMSASPGEKVTMTCSASSSVRYMYWYQQKPGSSPRLLIYDTSKLASGVPVRFSGSGSGTSYSLAISRMEAEDAASYYCQQWSSYPPTLGGGTKLEIK | binds |  |  |
| mouse IgG2a-B10 (PyMSP1_(19)-specific recombinant mouse IgG2a) (antibody, V domains shown, VH of B10 (anti-PyMSP1_19), from pB10-VH/5; mouse IgG2a heavy-chain constant region, amplified from genomic DNA; VL of B10, from pB10-VL/10; mouse kappa light chain constant region, amplified from BALB/c genomic DNA; Plasmids pVH-B10-mIgG2a and pVL-B10-mouse kappa; source: CHO-K1, stably transfected; culture supernatant) VH: QVQLQQSGPELVKPGASVKVSCKASGYAFTSYNMYWVKQSHGKSLEWIGYIDPYNGGTSYNQKLKGKATLTVDKSSSTAYIHLNSLTSEDSAVYYCTIHYYGYGGFAYWGQGTTVTSS VL: DIELTQSTAIMSASPGEKVTMTCSASSSVRYMYWYQQKPGSSPRLLIYDTSKLASGVPVRFSGSGSGTSYSLAISRMEAEDAASYYCQQWSSYPPTLGGGTKLEIK | binds |  |  |
| mouse IgG1-C1 (PfMSP1_(19)-specific recombinant mouse IgG1) (antibody, V domains shown, VH of C1 (anti-PfMSP1_19), as the VH of m7; mouse IgG1 heavy-chain constant region, amplified from BALB/c genomic DNA; VL of C1, as the VL of m7; mouse kappa light chain constant region, amplified from BALB/c genomic DNA; Plasmids pVH-C1-mIgG1 and pVL-C1-mouse kappa; also called mIgG1-C1; murine IgG1-C1; source: HEK-293T, stably transfected; culture supernatant, and purified (protein G-Sepharose)) VH: EVQLVQSGPEVKKPGASVKVSCKTSGYSFTSYDINWVRQAPGQGLEWMGRISPYNGKTDYTQTLRGRVTMSTDTSTTTVYLELRSLKSDDTAVYYCAREGVWFAELLSWGEGTLVTVSS VL: DIVMTQTPGTLSLSPGERATLSCRASQSVSGNYLAWYQQKPGQAPRLLIHGSSDRAAGTPDRFSGRGSGTDFTLTISRLEPEDFAVYYCQQYCSSPFTFGPGTKVEIK |  | 4.48e+07 | 23 |
| mouse IgG2a-C1 (PfMSP1_(19)-specific recombinant mouse IgG2a) (antibody, V domains shown, VH of C1 (anti-PfMSP1_19), as the VH of m7; mouse IgG2a heavy-chain constant region, amplified from genomic DNA; VL of C1, as the VL of m7; mouse kappa light chain constant region, amplified from BALB/c genomic DNA; Plasmids pVH-C1-mIgG2a and pVL-C1-mouse kappa; also called mIgG2a-C1; source: CHO-K1, stably transfected; culture supernatant, and purified (protein G-Sepharose)) VH: EVQLVQSGPEVKKPGASVKVSCKTSGYSFTSYDINWVRQAPGQGLEWMGRISPYNGKTDYTQTLRGRVTMSTDTSTTTVYLELRSLKSDDTAVYYCAREGVWFAELLSWGEGTLVTVSS VL: DIVMTQTPGTLSLSPGERATLSCRASQSVSGNYLAWYQQKPGQAPRLLIHGSSDRAAGTPDRFSGRGSGTDFTLTISRLEPEDFAVYYCQQYCSSPFTFGPGTKVEIK |  | 3.32e+07 | 30.1 |
| mouse IgG3-C1 (PfMSP1_(19)-specific recombinant mouse IgG3) (antibody, V domains shown, VH of C1 (anti-PfMSP1_19), as the VH of m7; mouse IgG3 heavy-chain constant region, amplified from genomic DNA; VL of C1, as the VL of m7; mouse kappa light chain constant region, amplified from BALB/c genomic DNA; Plasmids pVH-C1-mIgG3 and pVL-C1-mouse kappa; also called mIgG3-C1; source: CHO-K1, stably transfected; culture supernatant, and purified (protein G-Sepharose)) VH: EVQLVQSGPEVKKPGASVKVSCKTSGYSFTSYDINWVRQAPGQGLEWMGRISPYNGKTDYTQTLRGRVTMSTDTSTTTVYLELRSLKSDDTAVYYCAREGVWFAELLSWGEGTLVTVSS VL: DIVMTQTPGTLSLSPGERATLSCRASQSVSGNYLAWYQQKPGQAPRLLIHGSSDRAAGTPDRFSGRGSGTDFTLTISRLEPEDFAVYYCQQYCSSPFTFGPGTKVEIK |  | 2.33e+07 | 31.1 |
| mouse IgG2b-C1 (PfMSP1_(19)-specific recombinant mouse IgG2b) (antibody, V domains shown, VH of C1 (anti-PfMSP1_19), as the VH of m7; mouse IgG2b heavy-chain constant region, amplified from genomic DNA; VL of C1, as the VL of m7; mouse kappa light chain constant region, amplified from BALB/c genomic DNA; Plasmids pVH-C1-mIgG2b and pVL-C1-mouse kappa; also called mIgG2b-C1; source: CHO-K1, stably transfected; culture supernatant, and purified (protein G-Sepharose)) VH: EVQLVQSGPEVKKPGASVKVSCKTSGYSFTSYDINWVRQAPGQGLEWMGRISPYNGKTDYTQTLRGRVTMSTDTSTTTVYLELRSLKSDDTAVYYCAREGVWFAELLSWGEGTLVTVSS VL: DIVMTQTPGTLSLSPGERATLSCRASQSVSGNYLAWYQQKPGQAPRLLIHGSSDRAAGTPDRFSGRGSGTDFTLTISRLEPEDFAVYYCQQYCSSPFTFGPGTKVEIK |  | 1.2e+07 | 84.1 |
| human IgG1-C1 (JS1), parental human IgG1 antibody (antibody, V domains shown, VH of C1 (anti-PfMSP1_19); human IgG1 heavy-chain constant region; VL of C1; light-chain constant region of pVKExpress C1; IgG1; also called hIgG1-C1; (h)IgG1-C1) VH: EVQLVQSGPEVKKPGASVKVSCKTSGYSFTSYDINWVRQAPGQGLEWMGRISPYNGKTDYTQTLRGRVTMSTDTSTTTVYLELRSLKSDDTAVYYCAREGVWFAELLSWGEGTLVTVSS VL: DIVMTQTPGTLSLSPGERATLSCRASQSVSGNYLAWYQQKPGQAPRLLIHGSSDRAAGTPDRFSGRGSGTDFTLTISRLEPEDFAVYYCQQYCSSPFTFGPGTKVEIK |  | 3.94e+07 | 23 |
